According to PMC10269845, “Hijacking of Host Plasminogen by Mesomycoplasma (Mycoplasma) hyopneumoniae via GAPDH: an Important Virulence Mechanism To Promote Adhesion and Extracellular Matrix Degradation” (Microbiology Spectrum, 2023):

Molecular target: plasminogen (UniProt P00747 20-810)
Experiment: SPR
Conditions: both partners purified

plasminogen, sequence (P00747 20-810): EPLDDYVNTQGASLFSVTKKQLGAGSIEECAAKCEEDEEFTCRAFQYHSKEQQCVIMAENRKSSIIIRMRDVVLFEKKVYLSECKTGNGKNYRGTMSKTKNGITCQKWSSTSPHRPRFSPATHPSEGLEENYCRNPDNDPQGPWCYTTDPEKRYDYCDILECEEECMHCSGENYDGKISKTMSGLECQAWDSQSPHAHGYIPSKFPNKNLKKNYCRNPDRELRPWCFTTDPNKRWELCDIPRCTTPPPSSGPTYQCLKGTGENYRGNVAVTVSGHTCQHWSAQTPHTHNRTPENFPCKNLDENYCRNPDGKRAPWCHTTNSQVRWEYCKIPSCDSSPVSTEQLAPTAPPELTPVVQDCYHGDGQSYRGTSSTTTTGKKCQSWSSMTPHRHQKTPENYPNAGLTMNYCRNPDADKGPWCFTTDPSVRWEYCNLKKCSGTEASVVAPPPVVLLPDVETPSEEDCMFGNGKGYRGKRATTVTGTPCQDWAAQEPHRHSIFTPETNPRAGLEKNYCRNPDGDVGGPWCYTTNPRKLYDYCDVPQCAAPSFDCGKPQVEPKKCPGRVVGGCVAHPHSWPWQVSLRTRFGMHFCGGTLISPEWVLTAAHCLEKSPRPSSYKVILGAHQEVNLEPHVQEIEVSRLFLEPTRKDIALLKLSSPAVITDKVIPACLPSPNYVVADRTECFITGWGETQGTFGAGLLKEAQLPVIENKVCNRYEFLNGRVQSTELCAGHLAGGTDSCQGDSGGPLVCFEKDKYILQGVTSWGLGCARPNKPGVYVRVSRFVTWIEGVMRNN

B1: Recombinant glyceraldehyde-3-phosphate dehydrogenase (GAPDH) of Mesomycoplasma (Mycoplasma) hyopneumoniae strain 168 (enzyme)
chain: MKKIAINGFGRIGRLALRRLFEVNDENLQVVAINDLTDASVLAHLFKYDSAHGKFNGEVEVLKDNGKNYLKIKGQKILVLSERDPKSLPWGQLGIDLVVECTGFFASKSGASQHLEAGAKKVIISAPAGNDVKTIVYNVNCDTITEDDRILSSASCTTNALAPLVNALDKEFGINHGFMTTIHAYTADQRLQDAPHGDLRRARAAGVNLVPSSTGAAKAIGLVVPSLTGKLDGIAIRVPVITGSFVDLSVELKSNPSIEEINQKMREYANESFAYCDEPIVSSDIIGDRHGSIFDATLTKYIEANGKRLYKLYTWYDNEYSFVSQFVRVIRDFVQK
notes: also called rGAPDH; source: E. coli BL21(DE3), pET-32a, purified (Ni resin FF)
B1 showed a Kd of 376 nM.
